Test results reported in PMC10457348.

Biological target: nDARC(Y)-Fc: N-terminal 60 residues of human DARC (FyB) with tyrosine at position 41, fused to the Fc region of human IgG1 (human) (UniProt Q16570)
Assay: BLI; nDARC(Y)-Fc immobilised via its Fc on Anti-human IgG Fc Capture biosensors (20 ug/ml, 600 s); PvDBPII 1-120 nM; 25 C; PBS with 1 mg/ml BSA; reference biosensors with human IgG1 Fc subtracted; 1:2 binding model and steady-state analysis; mean of two experiments

| Substance | Kd [nM] |
| --- | --- |
| Recombinant Plasmodium vivax Duffy Binding Protein region II, variant PvW1 (PvDBPII PvW1) (from UniProt P22290 211-525) (domain or fragment) | 12 |
| Recombinant Plasmodium vivax Duffy Binding Protein region II, variant Salvador I (PvDBPII SalI) (from UniProt P22290 211-525) (domain or fragment) | 8.8 |
